± gives the uncertainty stated by the source.
Assay: amyloid nucleation score (Sup35N fusion, yeast selection) (log enrichment); library NNK3; higher = more nucleation; inactive = no reads after selection
Outline: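 Sup35N was fused to peptides of 20 random codons and expressed in psi-negative yeast, which were induced with 100 μM copper sulfate for 24 hours and then grown on medium lacking adenine and uracil for 7 days at 30°C. Plasmid inserts from input and output were sequenced on Illumina. The nucleation score is the DiMSum log enrichment of output over input reads, centred on the mode score of non-aggregating sequences. Sequences with under 100 input reads were left out, and random libraries had three technical output replicates.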

| Substance | amyloid nucleation score |
| --- | --- |
| FFLCDRKNRRST | inactive |
| FFSCYVESNSVMGKDFCRVM | 0.788 ± 0.12 |
| FFVNYHVGIFMSIYQIFVYV | inactive |
| FGFRCWLFWS | inactive |
| FGFYKWPTTCLGSVSSLSSM | 0.749 ± 0.11 |
| FGGLRTATL | inactive |
| FGIWRLCRFFA | inactive |
| FGMGKRLSNENMPLVSCTGL | inactive |
| FGQYSGVSCNWTPGCPAPCF | inactive |
| FGRFVMERLTS | inactive |
| FGSVVGRCSTSFVYRLINIR | 0.65 ± 0.17 |
| FGSYFSLKVFYNYF | 2.38 ± 0.055 |
| FGVSIVRHQVLLCGLSCISL | 1.85 ± 0.091 |
| FGVVH | inactive |
| FHLKKHWGKHGYFFMEDRRT | inactive |
| FHMFMTYTWYPVI | inactive |
| FHPFFIGVGSFLGSLHEFQS | inactive |
| FHRTEGCECVASLKVARGVV | 0.223 ± 0.31 |
| FHSGMHCMKDFDCLPGFVGR | inactive |
| FHTYIELLRALIAIRQGGSF | inactive |
| FHYVCFTFDSKFVGKLSYGS | 1.61 ± 0.1 |
| FIDMN | inactive |
| FIFSTLHNVLHGSNRVNSVW | inactive |
| FIGVKQTRKLNTFCLGSWLM | -0.061 ± 0.66 |

| Substance | amyloid nucleation score |
| --- | --- |
| FIIITKAFYRGTKMGGNTYS | -0.427 ± 0.73 |
| FIIPSSMTHMARKNIVRAW | inactive |
| FILFRYVTNALRKSAWVRLC | inactive |
| FILLGRNGLG | inactive |
| FILYMCKCS | inactive |
| FIMLQSPTNSSQILMPTQFT | inactive |
| FIMRSSSC | inactive |
| FIRIHRNAI | inactive |
| FISHSCYGWILRGCQTVGFW | -0.552 ± 0.98 |
| FISRRIRNVILWCYFM | inactive |
| FITVNRQNGK | inactive |
| FIWIIMVGNNVPNT | 2.06 ± 0.093 |
| FIWIT | inactive |
| FIWQMGNNPVVVAFSCRAGW | 2.56 ± 0.076 |
| FIYSGYTSVNKILGFYNHDS | 0.95 ± 0.16 |
| FIYSHTVWFRNYLHMYPILF | inactive |
| FKITEYVSFNGTRPDNISMN | -0.082 ± 0.85 |
| FKLVGCGCNVMTFVSYLVNQ | 1.98 ± 0.083 |
| FKLWWIKCCMHPLMMHVAWM | -0.036 ± 0.27 |
| FKNRYFHLPCSDLLYHSLGR | inactive |
| FKQMDTLTHISFSKAIMPSF | inactive |
| FKRWLSSWFKLA | inactive |
| FKTFSFFKLFCTYCYYTLTE | inactive |
| FKVLSFKSENSSYYVPFGLD | inactive |

| Substance | amyloid nucleation score |
| --- | --- |
| FKYLVIVNNWG | 2.82 ± 0.071 |
| FLCTLSMWYCIDRTFMYMCS | -0.053 ± 0.32 |
| FLDFTWMKHGTLALPQAAHQ | inactive |
| FLDGFVQPISESINLLMFCT | inactive |
| FLFIGSFCGCSVSRPDRYYS | 2.57 ± 0.08 |
| FLFYLFFFSGRMDR | 0.179 ± 0.33 |
| FLGFDRVFYGRRISPSFVRT | inactive |
| FLGTVLLGWFIAMMSRCLGR | 0.048 ± 0.45 |
| FLHDFSILIGMICNQIGITL | 1.24 ± 0.17 |
| FLIVGFPGNKLGC | 0.848 ± 0.1 |
| FLIYAQALLF | inactive |
| FLLEYYVCMFAVWSIWGMGH | 0.317 ± 0.75 |
| FLLFFILPSVRDLASHKSRG | 0.099 ± 0.19 |
| FLLTYVNIRGMQP | 1.49 ± 0.099 |
| FLMCVNFVCCIIMCCGTIWG | inactive |
| FLMCWVLIVV | inactive |
| FLMNDSCDRTIWFNVFLSNS | 0.7 ± 0.18 |
| FLNCFSC | 2.69 ± 0.054 |
| FLNLIYNLGRLWFQQLTRFK | inactive |
| FLNTSPYCGTL | inactive |
| FLRLKFRAYDP | 1.01 ± 0.11 |
| FLRWFWRD | 0.785 ± 0.18 |
| FLSLC | inactive |
| FLSLWLCSRCVSKSCGGFML | inactive |

| Substance | amyloid nucleation score |
| --- | --- |
| FLTSVGIAYAKFRLGYSCLL | inactive |
| FLVLVGIGIGMYLFVNHYVD | 1.64 ± 0.088 |
| FLVNFGKDFEIWREHYGVTI | -0.484 ± 1.4 |
| FLVVVSF | inactive |
| FLWGICWYRMVMKAHFDFIC | inactive |
| FLYMSMPSLSMVQICYSQRG | 1.99 ± 0.07 |
| FMCLFMNHYLKFGTSFPGRG | 0.974 ± 0.14 |
| FMDFRSYITGHNWIHAAWPA | inactive |
| FMPTVQVRLQC | inactive |
| FMTSEWRMGMYGVSGRITWE | 0.73 ± 0.24 |
| FMVLRYCVILWGFWEYMSSA | inactive |
| FMYDYLAHLPGDFVNNSCRR | inactive |
| FMYKLSLLVCDKWLIVILPF | inactive |
| FMYMVNMVNVTVN | inactive |
| FNDNVFIGRYVRTSYCLNLR | 1.72 ± 0.064 |
| FNDSLSLTVTRVIF | inactive |
| FNFTVSRVPISVMVLQKRRK | 1.18 ± 0.086 |
| FNFVLALI | 1.69 ± 0.084 |
| FNFVYV | 0.062 ± 0.88 |
| FNITGRVSYSIVTLCFMQCK | 2.75 ± 0.069 |
| FNLLHTRMTLLYSNIRNRYN | 0.358 ± 0.62 |
| FNNFRFTGQHR | inactive |
| FNRGKRCNSIRSLVPCNSPL | inactive |
| FNRGLLNHFFGH | inactive |

| Substance | amyloid nucleation score |
| --- | --- |
| FNSDKMAPLTGLCEVVRFGR | inactive |
| FNSNFHHSVNSVNGITFSEA | inactive |
| FNSYHTANRYI | inactive |
| FNVLSDPACVRPGLVVRVSE | inactive |
| FNVSHLVRYSVCYFCGMIEL | 1.89 ± 0.063 |
| FNVSTGCRWSWAPDHSPCQE | -0.058 ± 0.66 |
| FNYRFSLSHKNGFTRVNYGL | inactive |
| FPGSS | inactive |
| FPHSSGCYDAVTWSSWNGGH | inactive |
| FPMCFSFHLIGQ | inactive |
| FPMSIESDSLNSGRGLRPWG | inactive |
| FPRNVPG | inactive |
| FPRSSRIFSCCSRIRLCAFV | inactive |
| FPSSMGRQYIGVCKYLSDPP | inactive |
| FPYLRRTMGVLIYQCVPIRG | inactive |
| FPYNGALSFCIWYRVASRVY | inactive |
| FQKGLRQDYQVFLFDSNRFW | inactive |
| FQLWVKRTYNAEGNLYSPDD | inactive |
| FRCPMFFNCSSVLTSHVSLA | 1.34 ± 0.16 |
| FRFSR | inactive |
| FRGCYRFELLSDTCISRELV | inactive |
| FRGEMLFKVQF | 0.275 ± 0.27 |
| FRHCGCHTFLCIIVTDRHHY | 1.85 ± 0.061 |
| FRHCWRR | -0.532 ± 1.1 |

From the supplement of paper PMC12042874
